What was measured:
N_CTD = N_CTD (SARS-CoV-2 (Wuhan), UniProt P0DTC9 247-364); test: MST; settings: protein: recombinant, tags: 6xHis, chain copies: 2
[1] = molecular target: T1, N_WT (nucleocapsid, Wuhan) (SARS-CoV-2 (Wuhan), UniProt P0DTC9 1-419); test: MST; settings: protein: recombinant, tags: 6xHis, chain copies: 2
[2] = molecular target: T1, N_WT (nucleocapsid, Wuhan); test: EMSA; 15-500 nM N; settings: protein: recombinant; tags: 6xHis; chain copies: 2; label: Cy5 on RNA2; 3' overhang 11 nt on strand 1
[3] = molecular target: T1, N_WT (nucleocapsid, Wuhan); test: EMSA; full binding at about 500 nM N; settings: protein: recombinant; tags: 6xHis; chain copies: 2
[4] = label: Cy5 (Methods EMSA: Cy3), blunt

B1: dsRNA20 (dsRNA)
RNA 1: UUCGUCCGGGUGUGACCGAAAGGUAA
RNA 2: UUACCUUUCGGUCACACCCGGACGAA
In the case of B1, the Kd (N_CTD; label: Cy5, blunt) is reported as 3.3 ± 0.394 µM and the Kd ([1]; label: Cy5, blunt) is reported as 398 ± 157 nM.

Binder AACCAUAACAUGACCAUGAGGUGCAG (ssRNA) [ssRNA3] has a Kd (N_CTD; label: Cy5 (Methods EMSA: Cy3)) of 4.29 ± 0.427 µM and a Kd ([1]; label: Cy5 (Methods EMSA: Cy3)) of 1260 ± 722 nM.

Work on CAUAAUAAGAGGCUGGAUUUUUGGUA (ssRNA) [ssRNA22] yielded a Kd (N_CTD; label: Cy5) of 2.73 ± 0.588 µM and a Kd ([1]; label: Cy5) of 291 ± 121 nM.

B2: dsRNA3 (dsRNA)
RNA 1: AACCAUAACAUGACCAUGAGGUGCAG
RNA 2: CUGCACCUCAUGGUCAUGUUAUGGUU
With B2 the Kd (N_CTD; [4]) was 2.55 ± 0.567 µM and the Kd [1, 4] was 647 ± 151 nM.

B3: hybridized RNA2 (RNA2-Cy5/RNA7) (dsRNA)
RNA 1: CUGCACCUCAUGGUCAUGUUAUGGUU
RNA 2: GACCAUGAGGUGCAG
B3: binds [2].

B4: dsRNA22 (dsRNA)
RNA 1: CAUAAUAAGAGGCUGGAUUUUUGGUA
RNA 2: UACCAAAAAUCCAGCCUCUUAUUAUG
With B4 the Kd (N_CTD; label: Cy5, blunt) was 1.84 ± 0.252 µM and the Kd ([1]; label: Cy5, blunt) was 344 ± 132 nM.

For UUCGUCCGGGUGUGACCGAAAGGUAA (ssRNA) [ssRNA20], the Kd (N_CTD; label: Cy5) was 8.54 ± 4.51 µM and the Kd ([1]; label: Cy5) was 425 ± 186 nM.

B5: DNA of Fig. S2F (mixed)
DNA 1: TTTCGGCCTCATCAGGTCATCGCTTTAGTGAGGGTTAATAAA
DNA 2: TTATTAACCCTCACTAAA
B5: binds [3].
